Residue numbers refer to the chain shown, from its start.
What was measured:
xenograft tumor models = settings: Hoey et al., 2009; U.S. Pat. No. 7,750,124; cited from earlier work
human DLL4-Fc = human DLL4-Fc (Homo sapiens, UniProt Q9NR61); experiment: Biacore binding affinity (KD) to human DLL4; settings: ratio of KD values
Method: The KDs of parental antibodies anti-VEGF 219R45 (IgG format), anti-DLL4 21R79 (IgG format), anti-DLL4 21M18 (IgG format) and bispecific antibodies 219R45-MB-21M18 and 219R45-MB-21R79 were determined using a Biacore 2000 system from Biacore LifeSciences (GE Healthcare). Recombinant human DLL4-Fc or mouse DLL4-Fc proteins were immobilized on CM5 carboxyl chips using standard amine-based chemistry (NHS/EDC) and blocked with ethanolamine. Recombinant human VEGF165 or mouse VEGF165 were biotinylated and immobilized on streptavidin chips. The antibodies were serially diluted 2-fold from 100 nM to 0.78 nM in HBS-P (0.01M HEPES pH7.4, 0.15M NaCl, 0.005% v/v Polysorbate 20). For each antibody, all 8 dilutions were sequentially injected over a specific chip. Kinetic data were collected over time and were fit using the simultaneous global fit equation to yield affinity constants (KD values) for each bispecific antibody.
Several additional anti-DLL4 antibodies were identified that had binding affinities intermediate to the KDs of 21M18 and 21R79. Two of these anti-DLL4 antibodies were used to produce anti-VEGF/anti-DLL4 bispecific antibodies 219R45-MB-21R75 and 219R45-MB-21R83. Using the Biacore 2000 system as described above, the KDs of the bispecific antibodies 219R45-MB-21R75 and 219R45-MB-21R83 to human DLL4 were determined.

VEGF and DLL4 [1] = target: T1, VEGF and DLL4 (Homo sapiens, UniProt P15692+Q9NR61); experiment: HTRF assay for simultaneous binding to human VEGF and human DLL4; settings: d2-labeled hDLL4-Fc and Europium cryptate-labeled hVEGF165
Text: FIG. 2. HTRF assay for simultaneous binding of bispecific antibodies to human VEGF and human DLL4. Results are reported in Relative Fluorescence Units (RFU), which represent the ratio of the relative fluorescence intensity at 665 nm to the relative fluorescence intensity at 620 nm. 219R45-MB-21M18 (-●-); 219R45-MB-21R79 (-▪-); 219R45 plus 21M18 (-▴-); 219R45 plus 21R79 (-□-); 219R45 (-▾-); 21M18 (-⋄-); 21R79 (-∘-); control antibody LZ-1 (-Δ-).
To characterize the binding capabilities of certain antibodies and/or antibody mixtures to both VEGF and DLL4, homogeneous time resolved fluorescence (HTRF) assays were performed. Antibodies tested were anti-VEGF/anti-DLL4 bispecific antibodies 219R45-MB-21M18 and 219R45-MB-21R79, parental antibodies 219R45 (anti-VEGF), 21M18 (anti-DLL4), 21R79 (anti-DLL4), a combination of 219R45 and 21M18, or a combination of 219R45 and 21R79. The antibodies or antibody mixtures were serially diluted 2-fold from 3000 nM to 2.9 nM in binding buffer (1× PBS, 0.1% gelatin, 0.1% Polysorbate 20, 400 mM potassium fluoride) and placed in a white 96-well plate. […] The assay plates were incubated for 2 hours to overnight and read on a SpectraMax M5e Microplate reader (Molecular Devices, Sunnyvale, Calif.) at an excitation wavelength of 314 nm.

VEGF and DLL4 [2] = target: T1, VEGF and DLL4; experiment: Bispecific antibody ELISA; format: binding; design: purchased ATGEN, South Korea
Method: FIG. 7. Bispecific antibody ELISA. Bispecific antibodies 219R45-MB-21M18, 219R45-MB-21R79, 219R45-MB-21R75, and 219R45-MB-21R83 were diluted in blocking buffer (1× PBS, 0.1% gelatin, 0.1% Polysorbate-20, pH 7.4) containing 2 μg/ml biotin-DLL4-hFc. The antibodies were serially diluted 3-fold from 500 ng/ml to 0.008 ng/ml. The antibody samples were incubated for 2 hours in blocking buffer containing the biotin-DLL4-hFc. After incubation, the antibody samples were transferred to a VEGF-coated assay plate (100 ul/well) and incubated for 2 hours. Streptavidin-HRP was added to each well and incubated for 1 hr. TMB substrate was added to the wells with a 10 minute color development and the reaction was stopped with 2M sulfuric acid. Absorbance was read at 450-650 nm and the data analyzed using the 4-parameter fit within the Softmax Pro analysis program.
VEGF (ATGEN, South Korea) was coated onto Nunc maxisorb plates at 2 ug/ml (100 μl/well) and incubated overnight at 2-8° C. Bispecific antibodies 219R45-MB-21M18, 219R45-MB-21R79, 219R45-MB-21R75, and 219R45-MB-21R83 were diluted in blocking buffer (1× PBS, 0.1% gelatin, 0.1% Polysorbate-20, pH 7.4) containing 2 μg/ml biotin-DLL4-hFc. […] Absorbance was read at 450-650 nm and the data analyzed using the 4-parameter fit within the Softmax Pro analysis program (Molecular Devices, Sunnyvale, Calif.).

[3] = Non-GLP toxicity study in cynomolgus monkeys; format: in vivo; settings: after 15 weeks
Method: A non-GLP toxicity study in cynomolgus monkeys was initiated to evaluate and compare the toxicity profile of some of the bispecific antibodies. The animals were dosed with 0 mg/kg (control), 5 mg/kg (low dose), or 30 mg/kg (high dose) of anti-DLL4/anti-VEGF bispecific antibody (219R45-MB-21M18, 219R45-MB-21R83, or 219R45-MB-21R79) every 2 weeks via IV infusion. 3 males and 3 females were dosed in each group. After 15 weeks, mean body weights were lower in animals receiving the high dose of 219R45-MB-21R79 than in animals that received the high dose of either […] or 219R45-MB-21R83. In addition, mean serum albumin levels were lower in animals that received 219R45-MB-21R79 than in those that received either […] or 219R45-MB-21R83.

human DLL4-Fc, sequence (Q9NR61 27-522 limits assumed): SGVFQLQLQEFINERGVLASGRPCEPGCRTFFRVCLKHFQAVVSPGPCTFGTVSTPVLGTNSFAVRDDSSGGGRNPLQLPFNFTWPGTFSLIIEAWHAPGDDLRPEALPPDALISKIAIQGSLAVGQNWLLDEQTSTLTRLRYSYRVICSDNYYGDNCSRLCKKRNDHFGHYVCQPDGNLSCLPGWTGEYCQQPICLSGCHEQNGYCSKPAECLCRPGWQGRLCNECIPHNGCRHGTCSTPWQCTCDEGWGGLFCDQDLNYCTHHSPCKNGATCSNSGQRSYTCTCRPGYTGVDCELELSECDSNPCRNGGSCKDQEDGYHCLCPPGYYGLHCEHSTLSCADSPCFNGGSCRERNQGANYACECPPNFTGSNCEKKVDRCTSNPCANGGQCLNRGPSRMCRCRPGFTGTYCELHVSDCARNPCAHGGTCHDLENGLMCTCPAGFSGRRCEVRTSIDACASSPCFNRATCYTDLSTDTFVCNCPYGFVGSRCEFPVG

B1: 21M18: anti-DLL4 antibody, parental antibody (Hoey et al., 2009; U.S. Pat. No. 7,750,124) (antibody, V domains shown)
VH: QVQLVQSGAEVKKPGASVKISCKASGYSFTAYYIHWVKQAPGQGLEWIGYISSYNGATNYNQKFKGRVTFTTDTSTSTAYMELRSLRSDDTAVYYCARDYDYDVGMDYWGQGTLVTVSS
VL: DIVMTQSPDSLAVSLGERATISCRASESVDNYGISFMKWFQQKPGQPPKLLIYAASNQGSGVPDRFSGSGSGTDFTLTISSLQAEDVAVYYCQQSKEVPWTFGGGTKVEIK
Xenograft tumor models
  frequency of cancer stem cells in xenograft tumor models: reduce the frequency of cancer stem cells
  tumor growth in xenograft tumor models: inhibit tumor growth

B2: 219R45-MB-21R79: anti-VEGF/anti-DLL4 monovalent/bispecific antibody, heavy chains SEQ ID NO:7 and 6, light chains SEQ ID NO:8 (antibody)
heavy 1: QVQLVQSGAEVKKPGASVKVSCKASGYTFTNYWMHWVRQAPGQGLEWMGDINPSNGRTSYKEKFKRRVTLSVDKSSSTAYMELSSLRSEDTAVYFCTIHYDDKYYPLMDYWGQGTLVTVSSASTKGPSVFPLAPCSRSTSESTAALGCLVKDYFPEPVTVSWNSGALTSGVHTFPAVLQSSGLYSLSSVVTVPSSNFGTQTYTCNVDHKPSNTKVDKTVERKCCVECPPCPAPPVAGPSVFLFPPKPKDTLMISRTPEVTCVVVDVSHEDPEVQFNWYVDGVEVHNAKTKPREEQFNSTFRVVSVLTVVHQDWLNGKEYKCKVSNKGLPAPIEKTISKTKGQPREPQVYTLPPSREKMTKNQVSLTCLVKGFYPSDIAVEWESNGQPENNYKTTPPMLKSDGSFFLYSKLTVDKSRWQQGNVFSCSVMHEALHNHYTQKSLSLSPGK
heavy 2: QVQLVQSGAEVKKPGASVKISCKASGYSFTAYYIHWVKQAPGQGLEWIGYIANYNRATNYNQKFKGRVTFTTDTSTSTAYMELRSLRSDDTAVYYCARDYDYDVGMDYWGQGTLVTVSSASTKGPSVFPLAPCSRSTSESTAALGCLVKDYFPEPVTVSWNSGALTSGVHTFPAVLQSSGLYSLSSVVTVPSSNFGTQTYTCNVDHKPSNTKVDKTVERKCCVECPPCPAPPVAGPSVFLFPPKPKDTLMISRTPEVTCVVVDVSHEDPEVQFNWYVDGVEVHNAKTKPREEQFNSTFRVVSVLTVVHQDWLNGKEYKCKVSNKGLPAPIEKTISKTKGQPREPQVYTLPPSREEMTKNQVSLTCLVEGFYPSDIAVEWESNGQPENNYKTTPPMLDSDGSFFLYSELTVDKSRWQQGNVFSCSVMHEALHNHYTQKSLSLSPGK
light: DIVMTQSPDSLAVSLGERATISCRASESVDNYGISFMKWFQQKPGQPPKLLIYAASNQGSGVPDRFSGSGSGTDFTLTISSLQAEDVAVYYCQQSKEVPWTFGGGTKVEIKRTVAAPSVIFPPSDEQLKSGTASVVCLLNNFYPREAKVQWKVDNALQSGNSQESVTEQDSKDSTYSLSSTLTLSKADYEKHKVYACEVTHQGLSSPVTKSFNRGEC
modifications: 21R79 Heavy chain without predicted signal sequence; Light chain without predicted signal sequence
Human DLL4-Fc
  stronger binding to human DLL4 than 219R45-MB-21M18: approximately 30 fold
VEGF and DLL4 [1]
  simultaneous binding to hVEGF and hDLL4: able to bind both hVEGF and hDLL4 simultaneously
VEGF and DLL4 [2]
  more potent than 219R45-MB-21M18 in bispecific ELISA: about 7 fold
[3]; every 2 weeks IV infusion
  mean serum albumin levels: lower
[3]; high dose 30 mg/kg every 2 weeks IV infusion
  mean body weights: lower

B3: 219R45-MB-21M18: anti-VEGF/anti-DLL4 monovalent/bispecific antibody, heavy chains SEQ ID NO:7 and 5, light chains SEQ ID NO:8 (antibody)
heavy 1: B2 heavy 1
heavy 2: B2 heavy 2 with A52S, N53S, R56G
light: B2 light
modifications: 21R79 Heavy chain without predicted signal sequence; 21M18 Heavy chain without predicted signal sequence; Light chain without predicted signal sequence
VEGF and DLL4 [1]
  simultaneous binding to hVEGF and hDLL4: able to bind both hVEGF and hDLL4 simultaneously
